Results: the RNAGym collection of RNA variant scans (doi:10.1093/molbev/msab373)

B1: Azoarcus group I ribozyme (parent)
chain: GUGCCUUGCGCCGGGAAACCACGCAAGGGAUGGUGUCAAAUUCGGCGAAACCUAAGCGCCCGCCCGGGCGUAUGGCAACGCCGAGCCAAGCUUCGGCGCCUGCGCCGAUGAAGGUGUAGAGACUAGACGGCACCCACCUAAGGCAAACGCUAUGGUGAAGGCAUAGUCCAGGGAGUGGCGAAAGUCACACAAACCGG

Variants of: B1
Assay: reverse-splicing fitness (ratio to wild type); higher = more active; in vitro selection; Mg2+ level not given
Method in brief: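 An in vitro group I ribozyme library with randomized positions was T7-transcribed and gel-purified. In triplicate, 10 pmol RNA in EPPS pH 7.5 was reacted with 50 pmoles of a 30-nt RNA substrate for 1 h at 37 °C across several added MgCl2 levels (1–48 mM), then stopped with EDTA. Products were reverse transcribed from a substrate-complementary primer, PCR-amplified and sequenced (HiSeq 4000). Fitness is a variant's read proportion after selection over that before, normalised to wild type.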

In order of falling reverse-splicing fitness:
1. A111U A120C A145G C150U U176C  0.25
2. A111U A120C A145G C150U U176A  0.176
3. A111U A120G A145C C169U  0.151
4. A111U A120G A145G C150U  0.133
5. A111U A120G A145C C169A  0.11
6. A111U A120C C150A U176C  0.0574
7. A111U A120G A145G C169U U176C  0.0538
8. A111U A120G A145G C169U U176A  0.0467
9. A111U A120G A145G C150U C169G U176C  0.0424
10. A111U A120C A145C C169U U176C  0.0419
11. A111U A120G A145C C150U  0.0388
12. A111U A120C A145U C150G U176C  0.0375
13. A111U A120C C150A U176A  0.0374
14. A111U A120C C150U C169U U176C  0.0362
15. A111U A120C A145G C150G U176C  0.0344
16. A111U A120C A145G C150U U176G  0.0319
17. A111U A120C A145C C169U U176A  0.0309
18. A111U A120G A145G C150A C169G U176C  0.0294
19. A111U A120C C150U C169U U176A  0.0292
20. A111U A120G A145G C150A  0.0285
21. A111U A120G A145C C150U C169U U176A  0.0278
22. A111U A120G A145G C150U C169A U176C  0.0274
23. A111U A120G A145G C150U C169G U176A  0.0272
24. A111U A120G A145G C150G C169U  0.0237
25. A111U A120G A145G C150G  0.0235
26. A111U A120G A145G C150G C169G  0.0234
27. A111U A120G A145G C150U C169A U176A  0.0224
28. A111U A120C A145G C169A U176C  0.0215
29. A111U A120G A145C C150G  0.0213
30. A111U A120C A145U C150A C169U  0.0213
31. A111U A120G A145C C150U C169U U176C  0.0209
32. A111U A120G A145C C150A C169U U176A  0.0208
33. A111U A120C A145G C150A C169A U176C  0.0204
34. A111U A120G A145G C150A C169G U176A  0.0198
35. A111U A120C A145G C169A U176A  0.019
36. A111U A120C A145G C150A C169A U176A  0.0184
37. A111U A120C A145U C150G U176A  0.0175
38. A111U A120C C169G U176C  0.0168
39. A111U A120G A145C C150G C169U U176A  0.0163
40. A111U A120G A145G C150G C169A  0.0157
41. A111U A120G A145G C150G C169U U176C  0.015
42. A111U A120G A145C C150G C169U U176C  0.0146
43. A111U A120G A145C C150A C169A U176A  0.0144
44. A111U A120C C169G U176A  0.0144
45. A111U A120C A145G C150U C169A U176A  0.0143
46. A111U A120C A145G C150U C169A U176C  0.0138
47. A111U A120G A145G C150G C169A U176C  0.0131
48. A111U A120C C150U C169A U176C  0.0126
49. A111U A120G A145G C150G C169A U176A  0.0126
50. A111U A120C A145G C150G U176A  0.0125
51. A111U A120C A145G C150G C169A U176C  0.0123
52. A111U A120G A145U C150A C169A U176A  0.0123
53. A111U A120C C150A U176G  0.0118
54. A111U A120C A145G C150G C169A U176A  0.0117
55. A111U A120G A145C C150A  0.0115
56. A111U A120G A145C C150A C169U U176C  0.0114
57. A111U A120G A145G C150G C169U U176A  0.0113
58. A111U A120G A145U C150A C169A U176C  0.0102
59. A111U A120C A145U C150A C169A  0.00875
60. A111U A120G A145G C150G C169A U176G  0.00787
61. A111U A120C A145U C150A C169G  0.00755
62. A111U A120C A145G C150G C169A U176G  0.00732
63. A111U A120G A145G C150G C169U U176G  0.00728
64. A111U A120C C150G C169G U176A  0.00683
65. A111U A120G A145C C150A C169A U176C  0.00665
66. A111U A120C A145G C150G U176G  0.00627
67. A111U A120G A145G C169U U176G  0.00601
68. A111U A120C A145G C150A C169A U176G  0.00601
69. A111U A120C C150U C169U U176G  0.00585
70. A111U A120C A145G C150U C169A U176G  0.00555
71. A111U A120G A145G C150A C169G U176G  0.00526
72. A111U A120G A145G C150U C169A U176G  0.00525
73. A111U A120G A145C C150A C169U U176G  0.00521
74. A111U A120G A145C C150G C169U U176G  0.00521
75. A111U A120C A145C C169U U176G  0.00517
76. A111U A120C C150G C169G U176G  0.00508
77. A111U A120G A145G C150U C169G U176G  0.00498
78. A111U A120C C150G C169G U176C  0.00491
79. A111U A120C A145U C150G U176G  0.00473
80. A111U A120G A145C C150U C169U U176G  0.00469
81. A111U A120C A145G C169A U176G  0.0041
82. A111U A120C C169G U176G  0.00402
83. A111U A120G A145C C150A C169A U176G  0.004
